Data as given in the Human Domainome abundance scans (Beltran et al. 2025).
± gives the uncertainty stated by the source.

B1: CD2-associated protein, residues 109 to 169; numbered along this chain, Q9Y5K6 (parent)
chain: KKRQCKVLFEYIPQNEDELELKVGDIIDINEEVEEGWWSGTLNNKLGLFPSNFVKELEVTD

Variants of: B1
Experiment: abundance fitness (aPCA) (normalised: wild type 0, dead -1); higher = more abundant; growth selection in yeast, the domain comes from the species named
Conditions: Homo sapiens

KKRQKKVLFEYIPQNEDELELKVGDIIDINEEVEEGWWSGTLNNKLGLFPSNFVKELEVTD [C5K] and KKRQHKVLFEYIPQNEDELELKVGDIIDINEEVEEGWWSGTLNNKLGLFPSNFVKELEVTD [C5H] are within error of each other in abundance fitness: -0.632 ± 0.19 for the first, -1.01 ± 0.21 for the second.

Compared with KKRQSKVLFEYIPQNEDELELKVGDIIDINEEVEEGWWSGTLNNKLGLFPSNFVKELEVTD [C5S], KKRQQKVLFEYIPQNEDELELKVGDIIDINEEVEEGWWSGTLNNKLGLFPSNFVKELEVTD [C5Q] is higher in abundance fitness: -0.353 ± 0.056 for the first, -0.024 ± 0.1 for the second.

First: KKRQNKVLFEYIPQNEDELELKVGDIIDINEEVEEGWWSGTLNNKLGLFPSNFVKELEVTD [C5N]
Second: KKRQPKVLFEYIPQNEDELELKVGDIIDINEEVEEGWWSGTLNNKLGLFPSNFVKELEVTD [C5P]
The abundance fitness of the first is higher: -0.596 ± 0.083 for the first, -0.945 ± 0.17 for the second.

KKRQLKVLFEYIPQNEDELELKVGDIIDINEEVEEGWWSGTLNNKLGLFPSNFVKELEVTD [C5L] and KKRQMKVLFEYIPQNEDELELKVGDIIDINEEVEEGWWSGTLNNKLGLFPSNFVKELEVTD [C5M] are within error of each other in abundance fitness: -0.445 ± 0.072 for the first, -0.419 ± 0.13 for the second.

Going from KKRQYKVLFEYIPQNEDELELKVGDIIDINEEVEEGWWSGTLNNKLGLFPSNFVKELEVTD [C5Y] to KKRQDKVLFEYIPQNEDELELKVGDIIDINEEVEEGWWSGTLNNKLGLFPSNFVKELEVTD [C5D], the abundance fitness falls from -0.097 ± 0.07 to -0.626 ± 0.14.

Compared with KKRQIKVLFEYIPQNEDELELKVGDIIDINEEVEEGWWSGTLNNKLGLFPSNFVKELEVTD [C5I], KKRQFKVLFEYIPQNEDELELKVGDIIDINEEVEEGWWSGTLNNKLGLFPSNFVKELEVTD [C5F] is higher in abundance fitness: -0.656 ± 0.11 for the first, -0.367 ± 0.073 for the second.

First: KKRQRKVLFEYIPQNEDELELKVGDIIDINEEVEEGWWSGTLNNKLGLFPSNFVKELEVTD [C5R]
Second: KKRQGKVLFEYIPQNEDELELKVGDIIDINEEVEEGWWSGTLNNKLGLFPSNFVKELEVTD [C5G]
The abundance fitness of the first is lower: -0.547 ± 0.11 for the first, 0.235 ± 0.054 for the second.

KKRQEKVLFEYIPQNEDELELKVGDIIDINEEVEEGWWSGTLNNKLGLFPSNFVKELEVTD [C5E] and KKRQWKVLFEYIPQNEDELELKVGDIIDINEEVEEGWWSGTLNNKLGLFPSNFVKELEVTD [C5W] are within error of each other in abundance fitness: -0.688 ± 0.32 for the first, -0.743 ± 0.24 for the second.

KKRQVKVLFEYIPQNEDELELKVGDIIDINEEVEEGWWSGTLNNKLGLFPSNFVKELEVTD [C5V] and KKRQAKVLFEYIPQNEDELELKVGDIIDINEEVEEGWWSGTLNNKLGLFPSNFVKELEVTD [C5A] are within error of each other in abundance fitness: 0.23 ± 0.056 for the first, 0.335 ± 0.062 for the second.

KKRSCKVLFEYIPQNEDELELKVGDIIDINEEVEEGWWSGTLNNKLGLFPSNFVKELEVTD [Q4S] and KKRLCKVLFEYIPQNEDELELKVGDIIDINEEVEEGWWSGTLNNKLGLFPSNFVKELEVTD [Q4L] are within error of each other in abundance fitness: 0.134 ± 0.22 for the first, 0.271 ± 0.21 for the second.

KKRYCKVLFEYIPQNEDELELKVGDIIDINEEVEEGWWSGTLNNKLGLFPSNFVKELEVTD [Q4Y] and KKRRCKVLFEYIPQNEDELELKVGDIIDINEEVEEGWWSGTLNNKLGLFPSNFVKELEVTD [Q4R] are within error of each other in abundance fitness: 0.503 ± 0.19 for the first, 0.209 ± 0.17 for the second.

KKRVCKVLFEYIPQNEDELELKVGDIIDINEEVEEGWWSGTLNNKLGLFPSNFVKELEVTD [Q4V] and KKRWCKVLFEYIPQNEDELELKVGDIIDINEEVEEGWWSGTLNNKLGLFPSNFVKELEVTD [Q4W] are within error of each other in abundance fitness: 0.118 ± 0.22 for the first, -0.117 ± 0.25 for the second.

Compared with KKRQCKELFEYIPQNEDELELKVGDIIDINEEVEEGWWSGTLNNKLGLFPSNFVKELEVTD [V7E], KKRQCKALFEYIPQNEDELELKVGDIIDINEEVEEGWWSGTLNNKLGLFPSNFVKELEVTD [V7A] is higher in abundance fitness: -0.999 ± 0.37 for the first, -0.03 ± 0.076 for the second.

KKRQCKCLFEYIPQNEDELELKVGDIIDINEEVEEGWWSGTLNNKLGLFPSNFVKELEVTD [V7C] and KKRQCKDLFEYIPQNEDELELKVGDIIDINEEVEEGWWSGTLNNKLGLFPSNFVKELEVTD [V7D] are within error of each other in abundance fitness: -0.293 ± 0.2 for the first, -0.748 ± 0.39 for the second.

Going from KKRQCNVLFEYIPQNEDELELKVGDIIDINEEVEEGWWSGTLNNKLGLFPSNFVKELEVTD [K6N] to KKRQCHVLFEYIPQNEDELELKVGDIIDINEEVEEGWWSGTLNNKLGLFPSNFVKELEVTD [K6H], the abundance fitness rises from -0.472 ± 0.09 to -0.02 ± 0.077.

KKRQCIVLFEYIPQNEDELELKVGDIIDINEEVEEGWWSGTLNNKLGLFPSNFVKELEVTD [K6I] and KKRQCVVLFEYIPQNEDELELKVGDIIDINEEVEEGWWSGTLNNKLGLFPSNFVKELEVTD [K6V] are within error of each other in abundance fitness: 0.309 ± 0.054 for the first, 0.278 ± 0.041 for the second.

First: KKRQCPVLFEYIPQNEDELELKVGDIIDINEEVEEGWWSGTLNNKLGLFPSNFVKELEVTD [K6P]
Second: KKRQCYVLFEYIPQNEDELELKVGDIIDINEEVEEGWWSGTLNNKLGLFPSNFVKELEVTD [K6Y]
The abundance fitness of the first is lower: -0.761 ± 0.094 for the first, 0.219 ± 0.055 for the second.

First: KKRQCSVLFEYIPQNEDELELKVGDIIDINEEVEEGWWSGTLNNKLGLFPSNFVKELEVTD [K6S]
Second: KKRQCQVLFEYIPQNEDELELKVGDIIDINEEVEEGWWSGTLNNKLGLFPSNFVKELEVTD [K6Q]
The abundance fitness of the first is lower: -0.084 ± 0.046 for the first, 0.191 ± 0.065 for the second.

KKRQCEVLFEYIPQNEDELELKVGDIIDINEEVEEGWWSGTLNNKLGLFPSNFVKELEVTD [K6E] and KKRQCFVLFEYIPQNEDELELKVGDIIDINEEVEEGWWSGTLNNKLGLFPSNFVKELEVTD [K6F] are within error of each other in abundance fitness: -0.06 ± 0.11 for the first, -0.042 ± 0.059 for the second.

KKRQCRVLFEYIPQNEDELELKVGDIIDINEEVEEGWWSGTLNNKLGLFPSNFVKELEVTD [K6R] and KKRQCCVLFEYIPQNEDELELKVGDIIDINEEVEEGWWSGTLNNKLGLFPSNFVKELEVTD [K6C] are within error of each other in abundance fitness: 0.122 ± 0.054 for the first, 0.088 ± 0.052 for the second.

Compared with KKRQCMVLFEYIPQNEDELELKVGDIIDINEEVEEGWWSGTLNNKLGLFPSNFVKELEVTD [K6M], KKRQCWVLFEYIPQNEDELELKVGDIIDINEEVEEGWWSGTLNNKLGLFPSNFVKELEVTD [K6W] is lower in abundance fitness: 0.151 ± 0.08 for the first, -0.119 ± 0.086 for the second.

Going from KKRQCAVLFEYIPQNEDELELKVGDIIDINEEVEEGWWSGTLNNKLGLFPSNFVKELEVTD [K6A] to KKRQCLVLFEYIPQNEDELELKVGDIIDINEEVEEGWWSGTLNNKLGLFPSNFVKELEVTD [K6L], the abundance fitness rises from 0.112 ± 0.053 to 0.255 ± 0.046.
